# Data taken from JP2019059762A (dated 2019).
# “And” between values parts separate entries of the source, which are not always exact repeats. Identical values can stand only once.
# B1: huTBTI3_2_1 (bispecific antibody)
# chain 1: EVQLKESGPGLVAPGGSLSITCTVSGFSLTDSSINWVRQPPGKGLEWLGMIWGDGRIDYADALKSRLSISKDSSKSQVFLEMTSLRTDDTATYYCARDGYFPYAMDFWGQGTSVTVSSGGGGSGGGGSQVQLQQSGPELVKPGASVKISCKASGYSFTSYWIHWIKQRPGQGLEWIGMIDPSDGETRLNQRFQGRATLTVDESTSTAYMQLRSPTSEDSAVYYCTRLKEYGNYDSFYFDVWGAGTLVTVSSA
# chain 2: DIVLTQSPASLAVSLGQRATISCRASESVDSYGQSYMHWYQQKAGQPPKLLIYLASNLESGVPARFSGSGSRTDFTLTIDPVQAEDAATYYCQQNAEDSRTFGGGTKLEIKGGGGSGGGGSDIQMTQSPASLSVSVGDTITLTCHASQNIDVWLSWFQQKPGNIPKLLIYKASNLHTGVPSRFSGSGSGTGFTLTISSLQPEDIATYYCQQAHSYPFTFGGGTKLEIKR
# Columns and labels:
# Test in all cases: cell-based or functional assay
# [1] = target: T1, cynomolgus monkey IL-4 (cynomolgus monkey, UniProt P79339 25-153)
# T1 sequence (looked up): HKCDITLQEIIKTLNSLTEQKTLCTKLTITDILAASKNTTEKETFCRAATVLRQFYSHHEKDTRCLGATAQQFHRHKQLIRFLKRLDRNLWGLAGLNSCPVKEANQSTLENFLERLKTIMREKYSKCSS
# [2] = target: recombinant human IL-13 (human, UniProt P35225 35-146, limits assumed)
# Sequence of recombinant human IL-13 (P35225 35-146 limits assumed): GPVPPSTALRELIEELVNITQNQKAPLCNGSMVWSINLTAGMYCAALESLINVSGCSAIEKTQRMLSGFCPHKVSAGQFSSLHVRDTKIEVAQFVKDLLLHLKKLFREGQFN
# [3] = target: cynomolgus monkey IL-13 (cynomolgus monkey, UniProt Q0PW92 21-132)
# Sequence of cynomolgus monkey IL-13 (Q0PW92 entry or part of it): as the sequence (P35225 35-146 limits assumed) above, with G1S, R10K, M42V, S67N, H83R, L100V counted along it
binder,measurement,setting,value
B1,"geometric mean IC50, inhibition of cIL-4-induced TF-1 cell proliferation",[1],0.53 nM
same,"IC50, inhibition of IL-4- and IL-13-induced LOX gene expression in IPF lung fibroblasts",[2],3 nM and 6 nM
same,"IC50, inhibition of IL-13-induced Stat6 phosphorylation in human whole blood monocytes, donor 002",[2],1.32 nM
same,"IC50, inhibition of IL-13-induced Stat6 phosphorylation in human whole blood monocytes, donor 229",[2],3.68 nM
same,"IC50, inhibition of IL-13-induced Stat6 phosphorylation in human whole blood monocytes, donor 245",[2],2.65 nM
same,"IC50, suppression of IL-6 release from IPF lung fibroblasts (LL97A) stimulated with rhIL-13 + rhIL-4 together",[2],7.8 nM
same,"IC50, suppression of eotaxin release from IPF lung fibroblasts (LL97A) stimulated with rhIL-13 + rhIL-4 together",[2],3.8 nM
same,"geometric mean IC50, inhibition of hIL-13-induced TF-1 cell proliferation",[2],3.02 nM
same,"geometric mean IC50 of three experiments, inhibition of IL-13-induced Stat6 phosphorylation",[2],2.34 nM
same,"geometric mean IC50, inhibition of cIL-13-induced TF-1 cell proliferation",[3],0.45 nM
